Experimental data reported in paper PMC5658604.

Assays:
[1] = molecular target: T1, TtSmtB (Thermus thermophilus HB27) (UniProt Q72KG0); assay: EMSA; conditions: EMSA as in Fiorentino et al., 2007 (buffer not given here), 0-15 uM protein, 1 nM probe in the competition assay; footprinting in binding buffer, DNase I 1 min …
T1 sequence: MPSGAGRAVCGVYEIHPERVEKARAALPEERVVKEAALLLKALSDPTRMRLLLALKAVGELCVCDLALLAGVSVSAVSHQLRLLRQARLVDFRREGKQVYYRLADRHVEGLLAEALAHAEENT

[2] = molecular target: T1, TtSmtB (Thermus thermophilus HB27); assay: competition; conditions: EMSA as in Fiorentino et al., 2007 (buffer not given here), 0-15 uM protein, 1 nM probe in the competition assay; footprinting in binding buffer, DNase I 1 min …
[3] = molecular target: T1, TtSmtB (Thermus thermophilus HB27); assay: DNase I footprinting; conditions: EMSA as in Fiorentino et al., 2007 (buffer not given here), 0-15 uM protein, 1 nM probe in the competition assay, DNase I 1 min …
[4] = test system: TtSmtB (Thermus thermophilus HB27); assay: EMSA; conditions: cooperative, EMSA as in Fiorentino et al., 2007 (buffer not given here), 0-15 uM protein, 1 nM probe in the competition assay, footprinting in binding buffer, DNase I 1 min …

Substance: CGCCTCGCCGACCGGCACGTGGAGGGCCTGTTGGCGGAGGCCCTGGCCCACGCGGAAGAAAACACTTGACCAGTTGCTCAAATGATGCTACCCTGGGGGCATGAAGGCTCCCAGAGTGCGCGTCTTCCGGGTAGAGGGCATGG (double strand) [0354p (TTC0354 promoter)]
- Kd [1]: 1.4 µM
- binding [2]: binds
- binding [3]: binds

Substance: CTCCTTGACCACCCTCTCCTCGGGCAGGGCGGCCCGGGCCTTCTCCACCCTTTCCGGGTGGATCTCGTAGACCCCGCAGACCGCCCTACCAGCCCCGCTTGGCAAGCCTTTCCTCCTCCTTGAGCTGGTCCAGGTTGATGCCCACCATG (double strand) [TtsmtBp (TtsmtB promoter)]
- Kd [1]: 5 µM

Substance: 0354p (TTC0354 promoter)
- Kd ([4]; apparent, Hill fit): 1.4 µM

Substance: TtsmtBp (TtsmtB promoter)
- Kd ([4]; multiple complexes): 5 µM

Substance: AGAGGACGAGGACCCGCATCCTCCAAAGCCTAGCCCCCCTTCGGTCAGGGGGAGATCATGCGCTCAAGCTGGGCCACC (double strand) [TtarsCp (TtarsC promoter)]
- binding [1]: binds
